Experimental data from patent publication US9738880B2, “Lysosomal protein targeting sequence and therapeutic applications of same” (Children's Hospital Medical Center, priority 2013, dated 2017).
Residue numbers refer to the chain shown, from its start. Names and notes keep the numbering of the source.

T1: ldLIMP2 (Homo sapiens, UniProt Q14108)
T1 construct: Purified luminal domain LIMP-2 (1d-LIMP2) was custom made (Sino Biological Inc., PRC.); purchased Sino Biological Inc
T1 sequence (Q14108 28-433 limits assumed): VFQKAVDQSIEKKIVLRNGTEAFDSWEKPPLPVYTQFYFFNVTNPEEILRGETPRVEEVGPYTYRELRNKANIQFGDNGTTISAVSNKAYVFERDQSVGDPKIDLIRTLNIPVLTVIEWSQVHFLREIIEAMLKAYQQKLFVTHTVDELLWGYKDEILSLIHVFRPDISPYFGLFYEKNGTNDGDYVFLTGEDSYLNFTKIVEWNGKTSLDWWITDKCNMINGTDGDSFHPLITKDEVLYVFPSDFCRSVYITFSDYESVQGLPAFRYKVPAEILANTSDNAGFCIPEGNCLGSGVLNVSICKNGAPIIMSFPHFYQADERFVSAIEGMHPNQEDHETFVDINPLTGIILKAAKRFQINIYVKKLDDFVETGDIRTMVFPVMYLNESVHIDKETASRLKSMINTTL

B1: Mouse WT: mouse wild type GCase (protein, UniProt P17439 20-515, looked up)
Lysosomal acid …: AQPCIPKSFGYSSVVCVCNASYCDSLDPVTLPALGTFSRYESTRRGRRMELSVGAIQANRTGTGLLLTLQPEKKFQKVKGFGGAMTDATALNILALSPPTQKLLLRSYFSTNGIEYNIIRVPMASCDFSIRVYTYADTPNDFQLSNFSLPEEDTKLKIPLIHQALKMSSRPISLFASPWTSPTWLKTNGRVNGKGSLKGQPGDIFHQTWANYFVKFLDAYAKYGLRFWAVTAENEPTAGLFTGYPFQCLGFTPEHQRDFISRDLGPALANSSHDVKLLMLDDQRLLLPRWAEVVLSDPEAAKYVHGIAVHWYMDFLAPAKATLGETHRLFPNTMLFASEACVGSKFWEQSVRLGSWDRGMQYSHSIITNLLYHVTGWTDWNLALNPEGGPNWVRNFVDSPIIVDIPKDAFYKQPMFYHLGHFSKFIPEGSQRVALVASESTDLETVALLRPDGSAVVVVLNRSSEDVPLTISDPDLGFLETVSPGYSIHTYLWRRQ
B2: D399A: human GCase variant with D399A (ASPIIV sequence) (protein, UniProt P04062 40-536, looked up, variant D399A)
Lysosomal acid …: ARPCIPKSFGYSSVVCVCNATYCDSFDPPTFPALGTFSRYESTRSGRRMELSMGPIQANHTGTGLLLTLQPEQKFQKVKGFGGAMTDAAALNILALSPPAQNLLLKSYFSEEGIGYNIIRVPMASCDFSIRTYTYADTPDDFQLHNFSLPEEDTKLKIPLIHRALQLAQRPVSLLASPWTSPTWLKTNGAVNGKGSLKGQPGDIYHQTWARYFVKFLDAYAEHKLQFWAVTAENEPSAGLLSGYPFQCLGFTPEHQRDFIARDLGPTLANSTHHNVRLLMLDDQRLLLPHWAKVVLTDPEAAKYVHGIAVHWYLDFLAPAKATLGETHRLFPNTMLFASEACVGSKFWEQSVRLGSWDRGMQYSHSIITNLLYHVVGWTDWNLALNPEGGPNWVRNFVASPIIVDITKDTFYKQPMFYHLGHFSKFIPEGSQRVGLVASQKNDLDAVALMHPDGSAVVVVLNRSSKDVPLTIKDPAVGFLETISPGYSIHTYLWRRQ
B3: I402A/I403A: human GCase double mutant I402A + I403A (DSPAAV sequence) (protein)
chain: B2 Lysosomal acid … with A399D, I402A, I403A

Columns and labels:
[1] = target: T1, ldLIMP2; assay: Fluorescence polarization binding of DSPIIV GCase peptides to ldLIMP-2; conditions: for binding to ldLIMP2 by change in fluorescence polarization (δmP), in words: ldLIMP2 fixed at 50 nM, peptide up to 250 nM, FIG. 7A
Experimental: FIG. 7A-FIG. 7C: Binding and competition of fluorescent labeled or unlabeled DSPIIV (SEQ ID NO 15) GCase peptides to ldLIMP2. The change (δmP) in fluorescence polarization is plotted on the ordinate and the increasing concentrations of the various peptides are on the abscissa. FIG. 7A depicts saturation kinetics under conditions in which the concentration of ldLIMP2 (50 nM) was fixed. […] FIG. 7B depicts a similar study using unlabeled peptides as competitors. […] Each of the unlabeled peptides “competed” with the labeled peptides in the expected ratios. FIG. 7C depicts a competition study in which labeled (WT*) and unlabeled (WT) peptides were used in complementary competition studies.
FIG. 9: Effect pH on binding WT and alanine substituted DSPIIV (SEQ ID NO 15) peptides to ldLIMP2. […] In comparison, incremental decreases were evident in ldLIMP2 binding at pH=6.8, the approximate pH of the ER/cis-Golgi, as follows: the triple mutant (ASPAAV) having the lowest binding (<10% of WT), the DSPAIV (SEQ ID NO 17) (I402A) and DSPIAV (SEQ ID NO 18) (I403A) mutants being intermediate (˜40-50% of WT), and ASPIIV (SEQ ID NO 16) (D399A) having the least change (˜50-60% of WT), relative to WT.
FIG. 12: Stoichiometry between ldLIMP2 and DSPIIV (SEQ ID NO 15). The peptide concentration giving 50% of maximal binding to ldLIMP2 (ordinate) and the concentration of ldLIMP2 (abscissa) have a 1:1 ratio.
Fluorescence Polarization: The DSPIIV (SEQ ID NO 15) and its mutants, and DDQRLLL (SEQ ID NO 14) peptides (FITC labeled or non-labeled) were synthesized (American Peptide Co., Vista, Calif.). Lyophilized peptides were solubilized in acetonitrile and then were diluted at least 10,000-fold into the reactions for fluorescence polarization assessments. The reactions were done at least in duplicate at various peptide and LIMP-2 concentrations (SpectraMax M5, Molecular Device). Fluorescence polarization data were collected and analyzed with SoftMax Pro 5.0 software. Reaction mixtures contained 100 mM phosphate, pH 6.8 and 1 mM DTT.

[2] = system: Gba1−/− cells; assay: Proportion of GCase protein in cells and media; type: cell-based, mouse; conditions: for Total GCase: cellular + media; for Total GCase / Cellular GCase / Media GCase: mean ± SD, n = 3; for Cellular GCase / Media GCase: total ng
Description: (§1) FIG. 11A-FIG. 11C: Secretion and retention of GCase with alanine variants in the TDK (FIG. 11A) or DSPIIV (SEQ ID NO 15) (FIG. 11B and FIG. 11C) sequences. FIG. 11A depicts activities in the media of Gba1−/− fibroblasts following transient transfections of each of the specified alanine substituted GCases in the TDK region. […] FIG. 11B depicts in the Left Panel: Activities in the media following transient transfections of various DSPIIV (SEQ ID NO 15) alanine substituted GCases and the % of GCase secreted. The latter was calculated as {ng GCase (in media)/[ng GCase (in media)+ng (GCase in lysates)]}×100 (also see Table 2). […] The transfections alone (Null+lipo) had no effect. […] FIG. 11C deicts in cellular lysate GCase activities from the various alanine substituted GCases in the DSPIIV (SEQ ID NO 15) sequence as indicated. […] The doubly alanine substituted GCase had little intracellular activity, i.e., nearly all the GCase was secreted into the media.

[3] = system: Gba1 null/null mouse fibroblasts; assay: Immunofluorescence co-localization of expressed GCase constructs (lysosome vs ER/Golgi); type: cell-based; conditions: for Pearson Indices for co-localization to the lysosome, in words: DSPIIV variants, FIG. 10B; for co-localization to / retention in the ER/Golgi, in words: calnexin or calreticulin; for localization of GCase DSPIIV variants to the lysosome (Lamp1 / LIMP-2 co-localization), in words: transient transfection, FIG. 10A
Description: Immunofluorescence studies (IF): Mouse Gba1 null/null were used for the host cells for all transfection experiments. pCMV-AC-GFP Mammalian cell expression vector was used for expression of various GCases that included the TKD region (amino acids 407, 408 and 409) or the DSPIIV (SEQ ID NO 15) region (amino acids 399-404). Direct-labeled first antibodies were applied for IF detection; including anti-human GCase, -Calreticulin, -calnexin, -LIMP2, and -Lamp1. Lysotracker and ER tracker (Invitrogen) were also used as indicated. Analyses were done with a Zeiss AxioVert 200M with ApoTome. Co-localization analyses to obtain Pearson Indices were conducted using a module in the Axiovision 4.8 software.
Initial studies to localize the targeting peptide were conducted with GCase-GFP fusion constructs that had COOH-terminal deletions of GCase (FIG. 1). The constructs are designated as GCase-XX or XXX where the Xs represent the number of GCase amino acids deleted from the COOH-terminus. These constructs were transfected into and expressed in Gba1 null/null mouse fibroblasts using the CMV promoter (pCMV-AC-GFP or YFP) Immunofluorescence analyses using anti-human GCase IgG (green) and Lysotracker (Red) were used for colocalization of GCase to the lysosome (Red) or GCase (green) and Calreticulin or Calnexin (Red) for colocalization to the ER or Golgi (FIG. 2). […] Since LIMP-2 is the receptor for targeting of GCase to the lysosome, our working hypothesis was that the peptide sequence for binding of GCase to LIMP-2 was located within amino acids 347-422.

[4] = system: Gba1−/− fibroblasts; assay: GCase activity in media and cell lysates after transient transfection (secretion and retention); type: cell-based, mouse; conditions: cell lysates; FIG. 11C
Description: as §1
Enzyme Assays: Cell pellets were homogenized in 0.25% Na-taurocholate and 0.25% Triton X-100. GCase activities were determined fluorometrically with 4 mM 4MU-Glc in 0.2M/0.1M citric-phosphate, pH 5.6 (18, 54)

Molecule	binding to ldLIMP2 by change in fluorescence polarization (δmP), in words [1]	Total GCase [2] [ng]	Cellular GCase [2] [ng]	Media GCase [2] [ng]	also measured
DSPIAV	did not show saturation up to 250 nM	–	–	–	–
ASPIIV	little binding	–	–	–	decrease of binding to ldLIMP-2 ([1]; pH 6.8, FIG. 9): 30-40%; ldLIMP2 binding relative to WT peptide ([1]; pH 6.8, FIG. 9): 50-60 % of WT
ASPAAV [triple alanine mutant of the DSPIIV peptide]	background changes	–	–	–	ldLIMP2 binding relative to WT peptide ([1]; pH 6.8, FIG. 9): < 10 % of WT
DSPAIV	did not show saturation up to 250 nM	–	–	–	–
B1	–	64 ± 7	64 ± 7	0	% Secreted ([2]; ng GCase in media / (ng in media + ng in lysates) × 100): 0%
B2	–	50 ± 4	32 ± 4	18 ± 2	Pearson Indices for co-localization to the lysosome, in words [3]: little co-localization to the lysosome; co-localization to / retention in the ER/Golgi, in words [3]: significant retention in the ER/Golgi; localization of GCase DSPIIV variants to the lysosome (Lamp1 / LIMP-2 co-localization), in words [3]: Essentially identical results
B3	–	24 ± 4	4 ± 1	20 ± 3	Pearson Indices for co-localization to the lysosome, in words [3]: little co-localization to the lysosome; co-localization to / retention in the ER/Golgi, in words [3]: significant retention in the ER/Golgi; localization of GCase DSPIIV variants to the lysosome (Lamp1 / LIMP-2 co-localization), in words [3]: Essentially identical results; GCase activity in cell lysates relative to WT [4]: < 5 % of WT
